# Measurements taken from the DeepSol protein solubility set.
# Assay: soluble on expression in E. coli; label from the status in PepcDB or PDB records
row,Sequence,soluble on expression in E. coli
1,GMDYNQTVLSHLQKFWKHHDIKGFTWTLGRIVEELPDFQVFQVIPNHEDEPWVYVSSGIGQFLGQEFFIISPFETPEHIETLAMLASASMHYPDQFQLGKTVNIGRPWVEQSSFRHFLISLPYPYGQELEYMDNVRFFWLLPITQTERLFLNTHSVEELETKFDEAGIDYLDINRASTVWQAG,soluble
2,MRLVQDYDQQPIMYDEVELLIQAVDQQPHPLLRLRDKAIIQLGLQGGFRRSELANLKVHYLSFMRDKLKVRLPFSKSNQQGLREWKSLPDSEPFAAYHAVKSWLNESQITDGHLFRSISRDGKTLRPYHVNDNSKPKSTFSRNSGFLNGDDIYRIIKQYCLKAGLPAQYYGAHSLRSGCVTQLHENNKDILYIMARTGHTDPRSLRHYLKPKEDLEHHHHHH,soluble
3,MFQWLYDVLWLLAPIWIRRYLDKRSGSAPAYRAHRDERFGKPHPNPVTGAVWIHAVSVGETRAAQPLIRELRRRFPDAPLLMTQMTPTGRETAQVLFPDAQCRYLPYDKKTWVRQFLREHRPMFGILMETEIWPNLMKECRRAGVPLFLANARLSEKSLNGYLKVRRLIRPAAASLTGCLAQTEADAARLAKLGAASVQVCGNTKYDLMPSEDMKTLAGQFEKRIGGRPVAVCGSTRVYRGEDEAEKLLAAWQQYRGDALLAVVPRHPEHFQTTFETAKRFGFKVQRRSDGLPVEPDTQVWVGDSMGELYAYYLCADVAFVGGSLVGSGCQNIIEPLSCGVTTIFGFSTYNFSEACRHALASGAAVQVESADAWREAVEKTLSGEGGGMQMQARVDGFIAQHRGAGARIAEAVREAVCGHRGRLEHHHHHH,not soluble
4,MSLAVVASAVAGCGQVRVGQVEPAPGSPTRAQVEDMLGRVRVVAERGRPGGYDRDCGRGGGCVFGPAWTDDHGGAEGHNGCDTRNDVLAAQLSDVRYREGTRDCVVVAGTLRDPYTGRLLEFRKADARDVQIDHVYPLAAAWDLGAAGWSPEQRVRFANDTVTNLMATAGAVNQAKGDATPAEWMPPARANHCFYAGKYLTVAVRYDLPVTAADNAVLHAIARTCPEGHHHHHH,soluble
5,LLKEYKNAWDKYDDKQLKEVFALGDRFKNFISNCKTERECVTELIKTAEKSGYRNIEDILAKGETLKEGDKVYANNRGKGLIMFLIGKEPLYTGFKILGAHIDSPRLDLKQNPLYEDTDLAMLETHYYGGIKKYQWVTLPLAIHGVIVKKDGTIVNVCVGEDDNDPVFGVSDILVHLASEQLEKKASKVIEGEDLNILIGSIPLKDGEEKQKVKHNIMKILNEKYDISEEDFVSAELEIVPAGKARDYGFDRSMVMGYGQDDRICAYTSFEAMLEMKNAKKTCITILVDKEEVGSIGATGMQSKFFENTVADIMSLCGDYDELKLRKALYNSEMLSSDVSAAFDPNYPNVMEKRNSAYLGKGIVFNKYTGSRGKSGCNDANPEYIAELRRILSKESVNWQTAELGKVDQGGGGTIAYILAEYGMQVIDCGVALLNMHAPWEISSKADIYETKNGYSAFLNN,soluble
6,MTGQSTGTGEYSDFVAVFRDRYEKLAGKLRGRVNHRPTDAIENMGGGSDAALIGMVSDIRSTASGHWLVELEDTNGTFPCLVMKDRPIADLVQQLLMDEVIAVEGTLADDAGILFVDSLYFPDVPRTHNPSTADRHVQAALISDVHVGSQEFMEDAWHRFTDWLHTPEAEHVEYLLIAGDMVEGVGIYPEQDKELDIIDIYDQYRAFSEYLKEVPADMEIRMIPGNHDAVRLAEPQPGFDEELRDIMSAHDAQVHSNPSLVTVEGVTVLMYHGVSLDEVIAELPDEEASYEEPHRAMYQLLKKRHVAPQYGGHTRLAPEDRDYLVMEEVPDVFHTGHVHKLGWGEYHNVVALNSGCWQAQTEFQKSVNIDPDAGFAPILDLDTLEMTVRKFS,not soluble
7,MVRFFIGKEMLFDSHLHLDQLSDENIQQTLAHSKIIGMLAVSTNLNSAKKLLNLKQTYPKKLYIAAGFHPEQQLPSLEEQKKLFQWIDEHHSSISAIGEVGLPHYSKRENPNLDYVPYIELLERFILIAKKWDLPLNLHIVHNDVEIALELLQKHNIQRAHFHWFKTDEKSFQKFFSTPYFASLTPDILWNSKTQYVAQHLSLNRLMIETDSPWQHEGFERAGISEQLLAVLQKLAELKSLPLHSVQKQILLNTQQFYRLLEHHHHHH,not soluble
8,MKALALFSGGLDSLLSMKLIQEMGIEVVALHFNIGFGANRDKLEYLQNATAQIGVELRVLDIQEQFFNEVLFNPVHGYGKYFNPCIDCHANMFRHALRLLEGEGASFIISGEVIGQRPKSQRREALHQVENLTQTKGLILRPLSAKLLPPTLAEERGWVDREKLLDIHGRGRDRQLAMAKSYGWVYFE,not soluble
9,MGSDKIHHHHHHMGKVNYAAIDIGSNAVRLLIKSIDREAVQEKKIKKVMMLRVPLRLGFDVFSIGELSEKKADKLRRLMKAFRQLMKIYDVDDYRACATSAMRDARNGRTIIKKIEKDTGIRIEIIDGQEEARMIYNNHIECMEDRLGNYMYVDVGGGSTEINLLTNGELVWSVSYNIGTVRMLSNAVKEGTWQQMEEELMKVTEGVAAINIIGSGGNINKLFRLADKKDKKLQRLPVSSLQTVYDVLKPLTPEERVEAFSLKQDRADVIVPAAEIFLKIAEVVHAEYIYVPVIGLSDGIIDNLYAKSLEKEMKVE,not soluble
10,MGSDKIHHHHHHVAKVPQRKLLLSEIQLGMRVKLPLSWTNHPFLFNRVDISSAAQIEMIRGLGVPYVLLLSELNPASEVVEEDENVEDEIAAEPERDLKADTRKAIRLSQKRFLENVNNCRNVFGKIVSDPEGAYRLSAALVEDLLSHLQEVEKPFLTLVGMDDSDVSVTQHGVSVAVLAMMMGHALDLSPRELRDIALGSLLHDIGKLKVPDVIRRKRGALTPHEANYLQMHPNFAYDMLNRSGLFPKEVLHIVLHHHEFIDGSGFPDGLTDHKIPITTQIVSLANDYDQQLSGQQISSPQVALGYLFKNRATKHAESLIAILVKILGIYPPGTIVRLSDDSVAKVMMTTKEVSQPQVWACKEDGSEASLRFLSDEGVTVQKAIKAEELSEGAIRTLQVDKGVSFYFSSLQT,not soluble
11,MNEKHPGPLVVSGKLSDGERMKSESNFLRGTIAEDLNNGLTGGFSGDNFLLIRFHGMYQQDDRDIRAERAEQKLEPRHAMMLRCRLPGGIITPQQWLGIDKFAADNTLYGSIRITNRQTFQFHGILKGNVKPAHQLLNELGLDALATANDVNRNVLCTSNPVESALHQEAYEWAKKISEHLLPRTRAYAEIWLDAEKVATTDEEPILGATYLPRKFKTTVVIPPQNDVDLHANDLNFVAVADKGKLIGFNVLVGGGLSIAHGDKNTYPRKASEFGYIPLKHTLAIAEAVVTTQRDWGNRTDRKNAKTKYTLERVGVETFKAEVEKRAGVSFSAIKPYQFIGRGDRIGWVKGVDKKWHLTLFVENGRLLDYPGRSLKTGVAEIAKIHQGDFRLTANQNLIVAGVPEKDKARIEALAREHGLMDDNVTSQRENSMACVSFPTCPLAMAEAERFLPEFVTRVEGILQQHGLADEHIVLRVTGCPNGCGRALLAEVGLVGKAVGRYNLHLGGNREGTRIPRMYRENITADEILLITDQLVGRWAKERHVDEGFGDFVIRAGVIAPVIDSARDFYDVQEAM,not soluble
12,SPMPAGRPRFLRSMALSSQTREWLEKGMPTEAEAGVPIRLQERAANTAPQARAEERHTQPADAAAPHARAERGRTLQAPASTSPLYTGAVPRANRIVQQLVEAGADLANIRTMFRNMLRGEEMILSRAEQNVFLQHFPDMLPCGIDRNSELAIALREALRRADSQQAARAPARTPPRSS,soluble
13,MSLNKPKIVILGAGYGGLMTVTRLTKYVGPNDADITLVNKHNYHYETTWMHEASAGTLHHDRCRYQIKDVINQSRVNFVQDTVKAIKIDEKKVVLANGELQYDYLVIGLGAVPETFGIKGLKEYAFPIANINTSRLLREHIELQFATYNTEAEKRPDRLTIVVGGAGFTGIEFLGELAARVPELCKEYDVDRSLVRIICVEAAPTVLPGFDPELVDYAVHYLEENGVEFKIGTAVQECTPEGVRVGKKDEEPEQIKSQTVVWAAGVRGHPIVEEAGFENMRGRVKVNPDLRAPGHDNVFILGDSSLFMNEDTERPYPPTAQIAMQQGITVAKNLGRLIKGGELEEFKPDIKGTVASLGEHNAVGVVYGRKLKGTPASFMKKVIDNRSLFMIGGLGLTLKKGKFKEGHHHHHH,soluble
14,MSDVIEQYFVKNEPYYRPVADEVKLYEAAYSVRMPMMLKGPTGCGKTRFVEYMAWKLGKPLITVACNEDMTASDLVGRFLLDAQGTRWQDGPLTTAARYGAICYLDEVVEARQDTTVVIHPLTDNRRVLPLEKKGELVGAHPDFQLVISYNPGYQSLMKDLKQSTKQRFGALDFNYPQHDIETEIVSHETGIDSAIADKLVSIAERARNLKGHGLDEGISTRMLIYAGNLIAKGVDVHAACRMALVRPITDDPDMRDALDAAVTTFFLEHHHHHH,soluble
15,GMLHYTKEDLLELGAEITTREIYQQPDVWREAFEFYQAKREEIAAFLQEIADKHDYIKVILTGAGTSAYVGDTLLPYFKEVYDERKWNFNAIATTDIVANPATYLKKDVATVLVSFARSGNSPESLATVDLAKSLVDELYQVTITCAADGKLALQAHGDDRNLLLLQPAVSNDAGFAMTSSFTSMMLTTLLVFDPTEFAVKSERFEVVSSLARKVLDKAEDVKELVDLDFNRVIYLGAGPFFGLAHEAQLKILELTAGQVATMYESPVGFRHGPKSLINDNTVVLVFGTTTDYTRKYDLDLVREVAGDQIARRVVLLSDQAFGLENVKEVALGCGGVLNDIYRVFPYIVYAQLFALLTSLKVENKPDTPSPTGTVNRVVQGVIIHEYQK,soluble
16,LFPDELIDQLLAQVQGKDAESILGESGLAGQLKKQLAERMLAAELSHHLAAETEQGRAGNHRNGTSAKTVLTPNGELKLDIPRDRQATFEPQLVGKYQRRLPGFDDHVISMYARGMSVREIQGHLLELYGLQVSPDLISTVTDEVLADVEQWQQRPLEAMYPIVYFDALRLKIRDEGTVKNKAVYLALGIRAEGRKEVLGLWIEQTEGAKFWLKVFNELRTCQEFRVLRPVK,not soluble
17,MASMGVPALFRLLSRKFAKVITPVIEAPTEKLPDGTEIEPDLSLPNPNGVECDNLYLDMNGIVHPCSHPEDRPAPETEDEMMVAVFEYTDRILAMVRPRQLLFIAIDGVAPRAKMNQQRSRRFRSSREAALKEEELQAFIEEAKQQGIPIDENATKKKSWDSNCITPGTPFMDTLAKSLRYYIINKLNSDPCWRNVRFILSDASVPGEGEHKIMEFIRSQRVKPEYDPNTHHVVYGLDADLIMLGLATHEPHFRVLREDVFFQQGSTKKTKEERLGIKRLDDVSETNKVPVKKPFIWLNVSILREYLEVELYVPNLPFPFDLERAIDDWVFFIFFVGNDFLPHLPSLDIRDGAVERLTEIWRASLPHMGGYLTLDGSVNLARAEVILSAVGNQEDDIFKRLKQQEDRRNENYRRRQQRESNQESESYVDNVVIQRSVETQSTEVVTSSKSTSVDTKPPKKTQKIDAPAPVDLVNLSEKTSNRSLGATNRELINNRAANRLGLSREAAAVSSVNKLAASALKAQLVSNETLQNVPLEDSIASSSAYEDTDSIESSTPVVHPIDTKVSNVGQKRKAPDSTEENENTDTVRLYEPGYRERYYEQKFHISPDEPEKIREAVKHYVHGLCWVLLYYYQGCPSWTWYYPYHYAPFAADFKDLASIDVKFELNQPFKPYEQLLGVLPAASKNNLPEKLQTLMTDENSEIIDFYPENFTIDLNGKKFEWQGVALLPFIDENRLLNAVSKIYPQLTEEESKRNEDGSTLLFISEHHPMFSELVKQLYSKKRQGKPLKLSGKMAHGLFGKVNTNDSVIPNVSVQCPIDVTSADALQKYGSIDDNQSISLVFEVPKSHFVHKSMLLRGVKMPNRVLTPEDINQVRAERSFSSRRNNGNSAAALEHHHHHH,soluble
